Source: paper PMC4666351, “A novel transcriptional regulator of L-arabinose utilization in human gut bacteria”
Where a chain is given by its changes, count along the chain named.

T1: BtAraR R34N (Bacteroides thetaiotaomicron (VPI-548 …, UniProt Q8AAV8 1-225, R34N))
T1 sequence: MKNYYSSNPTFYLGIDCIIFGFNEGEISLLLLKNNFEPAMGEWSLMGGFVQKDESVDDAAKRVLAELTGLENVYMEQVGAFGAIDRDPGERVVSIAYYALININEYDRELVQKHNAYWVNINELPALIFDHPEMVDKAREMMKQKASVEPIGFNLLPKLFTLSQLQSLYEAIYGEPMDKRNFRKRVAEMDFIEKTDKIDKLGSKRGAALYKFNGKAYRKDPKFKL

T2: BtAraR F49Q (Bacteroides thetaiotaomicron (VPI-548 …, UniProt Q8AAV8 1-225, F49Q))
T2 sequence: T1 sequence with N34R, F49Q

T3: BtAraR V92D (Bacteroides thetaiotaomicron (VPI-548 …, UniProt Q8AAV8 1-225, V92D))
T3 sequence: T1 sequence with N34R, V92D

B1: BT0356 (araM) promoter 65-bp (dsDNA)
DNA 1: CCCCCATATAAGAGTGTATTTGATACACCAAACAAAAGTGTTACTTTTACACCCAAAATACCCCC
DNA 2: GGGGGTATTTTGGGTGTAAAAGTAACACTTTTGTTTGGTGTATCAAATACACTCTTATATGGGGG

Legend:
[1] = target: BtAraR (BT0354), NrtR family transcription factor of Bacteroides thetaiotaomicron (B. thetaiotaomicron); assay: crystal structure; four crystal forms of SeMet BtAraR: apo-1 (R3), apo-2 (I2_(1)3), complex with a 27-bp DNA duplex (P23), complex with L-arabinose (P2_(1)); data at 100 K
BtAraR R34N = target: T1, BtAraR R34N; assay: EMSA; 0.5 mM L-arabinose, 1 uM protein; EMSA: 20 mM Tris-HCl pH 8.0, 150 mM KCl, 5 mM MgCl2, 1 mM DTT, 0.05% NP-40, 2.5% glycerol, 37 C, 30 min; DNA 0.2 nM (0.16 nM in Fig S4), protein 0.25-1 uM; details: protein: recombinant; chain copies: 2; label: 5'-biotin on one strand; blunt
BtAraR F49Q = target: T2, BtAraR F49Q; assay: as above; details: protein: recombinant; chain copies: 2; label: 5'-biotin on one strand; blunt
BtAraR V92D = target: T3, BtAraR V92D; assay: EMSA; 1 uM protein; EMSA: 20 mM Tris-HCl pH 8.0, 150 mM KCl, 5 mM MgCl2, 1 mM DTT, 0.05% NP-40, 2.5% glycerol, 37 C, 30 min; DNA 0.2 nM (0.16 nM in Fig S4), protein 0.25-1 uM; details: protein: recombinant; label: 5'-biotin on one strand; blunt

Row | Molecule | stoichiometry N [1] | binding result (BtAraR R34N) | binding result (BtAraR F49Q) | binding result (BtAraR V92D)
1 | BtAraR (BT0354), NrtR family transcription factor of Bacteroides thetaiotaomicron (natural protein) | 2 | – | – | –
2 | B1 | – | binds | binds | no binding
